Measured values: PMC4234207

Each sequence was assayed against T1, GST-FKH-FoxA2 (Rattus norvegicus (rat; cloned from genomic DNA)) (UniProt P32182) (assay: competition EMSA). Settings: 25 mM HEPES pH 7.6, 150 mM KCl, 0.2 mM EDTA, 0.2 mM EGTA, 10% glycerol, 1 mM DTT, 3 ug protein, 1 ng 32P-TTR probe, 2/5/20 ng competitor, on ice 15 min; 4% ….
T1 sequence (P32182 145-290, looked up): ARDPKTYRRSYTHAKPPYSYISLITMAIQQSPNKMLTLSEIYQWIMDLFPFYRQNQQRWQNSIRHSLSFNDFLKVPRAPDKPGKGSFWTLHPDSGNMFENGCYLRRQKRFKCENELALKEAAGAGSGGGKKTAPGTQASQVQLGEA

| Sequence | binding signal (EMSA score (TTR=1)) |
| --- | --- |
| CAGTCAGTGGAAGGCTGTTAACTGTGCCTGCTGC (double strand) [non-site chr13:40870570] | -0.02 |
| CAGTCTGCCCTGCTGTTTACCAGCTGGAGA (double strand) [FoxA BS chr3:94456673 a] | 0.29 |
| CAGTGTGTTCCTATGTGTACACAGTACTTG (double strand) [FoxA BS chr4:3604382] | 0.91 |
| CAGTCTCCTCCATTGTGTACACTCCCCCTC (double strand) [FoxA BS chr7:44717527] | 0.49 |
| CAGTGGAACCTCTGATGTTGACTTTCCCTTGATT (double strand) [FoxA BS chr15:82621996 a] | 0.38 |
| CAGTATTTATTTGTATGTATTTTGAGACAG (double strand) [FoxA BS chr3:116606401] | 0.38 |
| CAGTAAGGTTATTATTATTTGTTTTATTTTGTTT (double strand) [FoxA BS chr10:75378448] | 0.83 |
| CAGTGCAACAAGTTGTTTACACTCTTCATT (double strand) [FoxA BS chr6:34792983 a] | 0.82 |
| CAGTCAGCTCCCATGTTTACCAGGCCTTGA (double strand) [FoxA BS chr6:121311851] | 0.57 |
| CAGTTGGAGTAGTTATTTACCTTAGCAGCC (double strand) [FoxA BS chr16:13816438] | 0.81 |
| CAGTGGGACCTGTCTTGTTGACCCATCACGTCAC (double strand) [FoxA BS chr17:32151628] | 0.47 |
| CAGTATGTGTTGTTGTTGACTTTAAGGTCG (double strand) [FoxA BS chr9:107420590] | 0.93 |
| CAGTTGCGCCCCGGGTGTTGGCAGCGAGAAGTGG (double strand) [non-site chr12:77880754 b] | 0.03 |
| CAGTTGGGCATATTTGCTCAGAACCTGGTA (double strand) [FoxA BS chr1:159362347] | 0.37 |
| CAGTGACAACCAATGTTGACTTAAAACCTT (double strand) [FoxA BS chr4:61847631] | 0.82 |
| CAGTGGCATCCGACTGATTTACTGAGCTGGTTCC (double strand) [non-site chr7:140707466 b] | 0 |
| CAGTACCCCAGGATTTGTGGGCTGTGGGTGTGGC (double strand) [non-site chr7:44970992] | -0.11 |
| CAGTCCCTATCTGTGTTTACAGCTGGTTTC (double strand) [non-site chr5:139643316] | 0.18 |
| CAGTAGAGGTCTTCCTCTTTGCCCATGTTGTGGG (double strand) [non-site chr7:26648074] | -0.16 |
| CAGTCCCGGGCCTGTTTGCTTTTCCATACA (double strand) [FoxA BS chr12:8003233] | 0.5 |
| CAGTCCTGGCTTTCCTGCTTACCCAACAACCGCT (double strand) [non-site chr3:94456673 b] | 0.07 |
| CAGTCACCGTTGTTTGTTCTGTGACAAATA (double strand) [FoxA BS chr19:56926814] | 0.68 |

| Sequence | binding signal (EMSA score (TTR=1)) |
| --- | --- |
| CAGTCTGAGAAACCTTGTTGATCTCAGGCAACCC (double strand) [non-site chr8:13025407 a] | 0.07 |
| CAGTCTCTGCCCCTCTATTGGTCTAGCTCTCCAA (double strand) [non-site chr16:22806861] | 0.06 |
| CAGTGTGAGTGTGTGTGTGTATACAGCGTGAGTC (double strand) [FoxA BS chr15:59478046] | 0.26 |
| CAGTCCGGGATTGGCTGTTTGTAATCTGCTCGAC (double strand) [non-site chr17:74394072] | 0 |
| CAGTAGGGTCAAGGTAGTTTGCATATCTTCCAAC (double strand) [non-site chr7:83767529] | 0.24 |
| CAGTCTCTGAGTGACTGTTTTCTGTAATACCCAA (double strand) [non-site chr15:91019750] | 0.01 |
| CAGTACTCATCCTGCTATTGACAGTCGGATATAT (double strand) [FoxA BS chr7:29476412] | 0.4 |
| CAGTGTTGCCCGTCGTATTTGTATATGGTTTCCT (double strand) [FoxA BS chr10:79387812] | 0.58 |
| CAGTGAGGCGGGGTGTTGACTCTTACGCCA (double strand) [FoxA BS chr8:112454327] | 0.33 |
| CAGTGCTAGATCCAGTTTTTACACAGAAAGTTTC (double strand) [non-site chr8:13025407 b] | -0.06 |
| CAGTTATCAATGTTTGTTTACCTTGTGGCT (double strand) [FoxA BS chrX:6878436] | 1.65 |
| CAGTTGGCCCCAGTATTTACATTTCTAACA (double strand) [FoxA BS chr15:54962925] | 0.92 |
| CAGTTTGGGTCAATATTTATTCTTTCATTT (double strand) [FoxA BS chr19:38189585] | 0.48 |
| CAGTTCATGCCACAGTTTACTCTGGTCCCT (double strand) [non-site chr1:154160175] | 0.24 |
| CAGTCTGCGGCGCCAGATTTACACAGCGCGAGGA (double strand) [FoxA BS chr7:15773405] | 0.25 |
| CAGTGCGTGCATTGGTGTTCGCTCAGAGCGGGAC (double strand) [non-site chr6:5446118] | 0 |
| CAGTCTTGAGGCCTGTTTACCGTCCAGTTA (double strand) [FoxA BS chr19:44039737] | 0.43 |
| CAGTAGCCCCTCCTGTGTTGTCTTCCAGTAGATG (double strand) [non-site chr7:59095749] | 0.09 |
| CAGTCCCTTCCCTTATTTACATTCCCGAGA (double strand) [FoxA BS chr7:140707466 a] | 1.13 |
| CAGTCCTTGTGCTTATTTACATACCCCGCC (double strand) [FoxA BS chr19:12527263] | 0.84 |
| CAGTCGTGACCTTTGTTGACTCGCGTCAGT (double strand) [FoxA BS chrX:17319260] | 0.53 |
| CAGTGCGGCGCTGTGTTTACCTTCCGGGAG (double strand) [FoxA BS chr11:85168610] | 1.08 |

| Sequence | binding signal (EMSA score (TTR=1)) |
| --- | --- |
| CAGTCATATAGGCTCTGTTTGAACATTAATTAAC (double strand) [FoxA BS chr15:82621996 b] | 0.31 |
| CAGTGTTCAGAGCTGTTTACTTGAACGCGA (double strand) [FoxA BS chr6:34792983 b] | 0.53 |
| CAGTTATCTGTACTTTATTTTCAAACGCTATAAT (double strand) [non-site chr8:96902217 b] | -0.01 |
| CAGTATTGGACATTGTTTATTTGTTTTGCC (double strand) [FoxA BS chr1:141375708] | 1.21 |
| CAGTGGATGCCTCTATTTGTTTAATCACAG (double strand) [FoxA BS chr9:122199103] | 1.1 |
| CAGTCGTCTTCCCTGTGTGCTTACTATGCA (double strand) [non-site chr12:85340663 b] | 0.07 |
| CAGTTGCTGGCCTAATGTGGACACAGGGGGTTCC (double strand) [FoxA BS chr3:83135377] | 0.64 |
| CAGTCCAGGGGACCTGTTTACCTTACATAG (double strand) [FoxA BS chr17:45901267] | 0.7 |
| CAGTAAGCCTCGCGTTGTTTGGTTAAGGGGCAGG (double strand) [FoxA BS chr1:7078701] | 0.83 |
| CAGTACTAGATGTTTACTTTAAGGGACCAG (double strand) [FoxA BS chr9:107745824] | 1.3 |
| CAGTAAACTCTGCTGTGTGTACAGATAACATTAC (double strand) [non-site chr7:119551431] | 0.22 |
| CAGTTTCAAAGCTTGTTGACGGAGAGAAAT (double strand) [non-site chr17:25500984] | 0.2 |
| CAGTTGCCTTTCTGTTTGTTGTTTTGGAGG (double strand) [non-site chr5:30822343] | 0.21 |
| CAGTGGTCACCCTTTGGTTTACCTTTTAGGAACA (double strand) [FoxA BS chr8:96902217 a] | 0.52 |
| CAGTCCAGACTCGCTTGTTGACAGAGCTCAGGGC (double strand) [FoxA BS chr12:77880754 a] | 0.38 |
| CAGTTCACCTGAGGGTGTGTACACAGTCTCTCAG (double strand) [FoxA BS chr7:100410756] | 0.56 |
| CAGTGGACCTTATTTACTTTCCTTAGCAAG (double strand) [FoxA BS chr12:85340663 a] | 0.99 |
| CAGTAGCGCCTGCAGTTTACCTTGGCTCCG (double strand) [non-site chr9:102865800] | 0.13 |
| CAGTCTCCCGGCCGGGGTTGACTCTCTCTGAGCT (double strand) [non-site chr8:87127281] | 0.11 |
| CAGTAGGTTTCTCTATTGACTCTATTGCCT (double strand) [FoxA BS chr11:45798706] | 0.49 |

Same assay, conditions: negative control; 25 mM HEPES pH 7.6, 150 mM KCl, 0.2 mM EDTA, 0.2 mM EGTA, 10% glycerol, 1 mM DTT, 3 ug protein, 1 ng 32P-TTR probe, 2/5/20 ng competitor, on ice 15 min; 4% …

| Sequence | binding signal (EMSA score (TTR=1)) |
| --- | --- |
| CGATCAAAACTAGGTCAAAGGTCA (double strand) [PPAR] | 0 |
